Measurements: patent publication US20160145343A1

Legend:
[1] = molecular target: MUC1 on MUC1+ human cancer cell lines and tumor tissue (abnormal, e.g. hypoglycosylated, tumor MUC1) (human) (UniProt P15941); test: immunohistochemistry, colon tissue microarray
[2] = molecular target: MUC1 on MUC1+ human cancer cell lines and tumor tissue (abnormal, e.g. hypoglycosylated, tumor MUC1) (human) (UniProt P15941); test: immunohistochemistry, colon tissue microarray, benign samples
[3] = molecular target: MUC1 on MUC1+ human cancer cell lines and tumor tissue (abnormal, e.g. hypoglycosylated, tumor MUC1) (human) (UniProt P15941); test: immunohistochemistry, colon tissue microarray, malignant samples
[4] = molecular target: MUC1 on MUC1+ human cancer cell lines and tumor tissue (abnormal, e.g. hypoglycosylated, tumor MUC1) (human) (UniProt P15941); test: flow cytometry, BT20 cells, secondary antibody only
[5] = molecular target: MUC1 on MUC1+ human cancer cell lines and tumor tissue (abnormal, e.g. hypoglycosylated, tumor MUC1) (human) (UniProt P15941); test: flow cytometry, HPAF cells, secondary antibody only
[6] = molecular target: MUC1 on MUC1+ human cancer cell lines and tumor tissue (abnormal, e.g. hypoglycosylated, tumor MUC1) (human) (UniProt P15941); test: flow cytometry, MCF-7 cells, secondary antibody only
[7] = molecular target: MUC1 on MUC1+ human cancer cell lines and tumor tissue (abnormal, e.g. hypoglycosylated, tumor MUC1) (human) (UniProt P15941); test: flow cytometry, PANC-1 cells, secondary antibody only
[8] = molecular target: MUC1 on MUC1+ human cancer cell lines and tumor tissue (abnormal, e.g. hypoglycosylated, tumor MUC1) (human) (UniProt P15941); test: flow cytometry, SKBR-3 cells, secondary antibody only
[9] = molecular target: MUC1 on MUC1+ human cancer cell lines and tumor tissue (abnormal, e.g. hypoglycosylated, tumor MUC1) (human) (UniProt P15941); test: flow cytometry, MS+MUC1 cells, secondary antibody only
[10] = molecular target: MUC1 on MUC1+ human cancer cell lines and tumor tissue (abnormal, e.g. hypoglycosylated, tumor MUC1) (human) (UniProt P15941); test: flow cytometry, BT20 cells
[11] = molecular target: MUC1 on MUC1+ human cancer cell lines and tumor tissue (abnormal, e.g. hypoglycosylated, tumor MUC1) (human) (UniProt P15941); test: flow cytometry, HPAF cells
[12] = molecular target: MUC1 on MUC1+ human cancer cell lines and tumor tissue (abnormal, e.g. hypoglycosylated, tumor MUC1) (human) (UniProt P15941); test: flow cytometry, MCF-7 cells
[13] = molecular target: MUC1 on MUC1+ human cancer cell lines and tumor tissue (abnormal, e.g. hypoglycosylated, tumor MUC1) (human) (UniProt P15941); test: flow cytometry, PANC-1 cells
[14] = molecular target: MUC1 on MUC1+ human cancer cell lines and tumor tissue (abnormal, e.g. hypoglycosylated, tumor MUC1) (human) (UniProt P15941); test: flow cytometry, SKBR-3 cells
[15] = molecular target: MUC1 on MUC1+ human cancer cell lines and tumor tissue (abnormal, e.g. hypoglycosylated, tumor MUC1) (human) (UniProt P15941); test: flow cytometry, MS+MUC1 cells

Substance: HMPV (BD Biosciences), mouse anti-MUC1 antibody
- samples MUC1+ by staining (of 6 benign samples) [1]: 3
- samples MUC1+ by staining (of 138 malignant samples) [1]: 114
- MUC1+ samples stained (of 3 MUC1+ benign samples) [2]: 3
- MUC1+ samples stained (of 114 MUC1+ malignant samples) [3]: 114

Substance: Hu-2nd. (APC-labeled secondary antibody only control for the human antibodies)
- percentage of APC+ stained cells [4]: 1.17%
- percentage of APC+ stained cells [5]: 1.02%
- percentage of APC+ stained cells [6]: 1.73%
- percentage of APC+ stained cells [7]: 2.01%
- percentage of APC+ stained cells [8]: 0.96%
- percentage of APC+ stained cells [9]: 0.55%

Substance: M-2nd. (APC-labeled secondary antibody only control for the mouse antibodies)
- percentage of APC+ stained cells [4]: 1.74%
- percentage of APC+ stained cells [5]: 0.77%
- percentage of APC+ stained cells [6]: 1.39%
- percentage of APC+ stained cells [7]: 3.45%
- percentage of APC+ stained cells [8]: 1.67%
- percentage of APC+ stained cells [9]: 0.46%

Substance: VU-3C6 (Abcam), mouse anti-MUC1 antibody
- percentage of APC+ stained cells [10]: 92.3%
- percentage of APC+ stained cells [11]: 98.4%
- percentage of APC+ stained cells [12]: 98.7%
- percentage of APC+ stained cells [13]: 98.8%
- percentage of APC+ stained cells [14]: 99.9%
- percentage of APC+ stained cells [15]: 99.4%

Substance: VU-4H5 (Abnova), mouse anti-MUC1 antibody
- percentage of APC+ stained cells [10]: 32.9%
- percentage of APC+ stained cells [11]: 6.99%
- percentage of APC+ stained cells [12]: 27.8%
- percentage of APC+ stained cells [13]: 54.3%
- percentage of APC+ stained cells [14]: 24.1%
- percentage of APC+ stained cells [15]: 24.6%
- MUC1+ samples stained (of 3 MUC1+ benign samples) [2]: 2
- MUC1+ samples stained (of 114 MUC1+ malignant samples) [3]: 49
